Measured values reported in US8431161B2, “Microparticle and pharmaceutical composition thereof” (Toray Industries, Inc., priority 2008, dated 2013).
Like-named read-outs stand apart in the source and are kept apart here.

Columns and labels:
[1] = Hypodermic administration of Exendin-4-encapsulating microparticles in SCID mouse, Exendin-4 in plasma; format: in vivo; details: 700 μg/0.2 ml
Protocol: (§1) The supernatant was centrifugally separated again for 5 minutes at 80×g, and the remaining particles were precipitated, and the supernatant was removed.
This solution was hypodermically injected in the back of 8-week-old SCID mouse (CB17/lcr-Prkdcscid/CrlCrlk) (from Crea Japan Inc.), and the blood was sampled at specific intervals from the caudal vein.

[2] = mouse, in vivo
Protocol: as §1

[3] = mouse, in vivo; remark: listed apart in the source
Protocol: 300 mg of the prepared microparticles was suspended and dispersed in 3 ml of phosphate physiological buffer solution (PBS), and centrifuged for 5 minutes at 80×g to precipitate microparticles, and the supernatant was transferred into other tube. The supernatant was centrifuged again for 5 minutes at 80×g to precipitate the remaining particles, and the supernatant was removed. By re-dispersing in 1 ml of PBS after first time of centrifugal precipitation and second time of centrifugal precipitation, the same centrifugal cleaning operation was repeated three times, and the growth hormone not encapsulated in the microparticles were removed. Finally, the precipitation was dispersed again in 200 μl of PBS, and an administration solution was obtained.
This solution was injected hypodermically at two positions in the back of 10-week male Balb/C mouse, and the blood was sampled at specific time intervals from the caudal vein. In the sampled blood, heparin of final concentration of 3.31 U/ml was added, and plasma was collected by centrifugal separation for 5 minutes at 5,000 rpm, and the concentration of growth hormone in plasma was measured by using an ELISA kit.
By way of comparison, a non-granulated human growth hormone protein solution (700 μg/0.2 ml) was hypodermically administered in mouse, and the blood was sampled similarly. […]

[4] = Body weight changes of pituitary gland extracted mouse after hGH microparticles; format: in vivo; details: hypodermic administration

Substance	blood level in 1 hour after administration (Exendin-4 in plasma) [1]	time in which blood level dropped to a level before administration [2]	time in which blood level dropped to a level before administration [3]	body weight increase [4]
Exendin-4 [non-granulated Exendin-4]	very high	a day	–	–
human growth hormone [non-granulated human growth hormone]	–	–	a day	about 5%
